Residue numbers refer to the chain shown, from its start.
Experiments:
Human PTH (1-34) [1] = target: T1, Human PTH (1-34) (human, not fully specified); experiment: BiaCore, 25° C., 34mer
T1 construct: Synthetic peptide bought from Bachem; also called hPTH (1-34); human 34mer
T1 peptide: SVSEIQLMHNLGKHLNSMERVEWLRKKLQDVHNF

Human PTH (1-84) [2] = target: T2, Human PTH (1-84) (human); experiment: BiaCore, 37° C., 84mer
T2 construct: Synthetic peptide bought from Bachem; also called hPTH1-84; Hu 84mer
T2 peptide: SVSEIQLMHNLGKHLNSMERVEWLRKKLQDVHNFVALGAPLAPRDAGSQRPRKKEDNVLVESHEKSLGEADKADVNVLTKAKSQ

Human PTH (1-34) [3] = target: T1, Human PTH (1-34); experiment: cell-based or functional assay
[4] = target: T3, endogenous human PTH in pooled serum from hemodialysis patients (human, UniProt P01270 32-115, limits assumed); experiment: immunoassay-based Scatchard analysis in pooled serum of hemodialysis patients
T3 construct: Circulating hormone; may be a mix of intact PTH and fragments
T3 sequence (looked up): T2 peptide

[5] = target: T4, PTH 20-28 peptide RVAWLRKKL; experiment: alanine-scanning peptide array
T4 construct: Alanine variant; the entry already holds the change
T4 peptide: RVAWLRKKL

[6] = target: T5, PTH 20-28 peptide RVEWLAKKL; experiment: alanine-scanning peptide array
T5 construct: Alanine variant; the entry already holds the change
T5 peptide: RVEWLAKKL

[7] = target: T6, PTH 20-28 peptide RVEWLRKKA; experiment: alanine-scanning peptide array
T6 construct: Alanine variant; the entry already holds the change
T6 peptide: RVEWLRKKA

[8] = target: T7, PTH 20-28 peptide RVEWLRKAL; experiment: alanine-scanning peptide array
T7 construct: Alanine variant; the entry already holds the change
T7 peptide: RVEWLRKAL

[9] = target: T8, PTH 20-28 peptide RVEWARKKL; experiment: alanine-scanning peptide array
T8 construct: Alanine variant; the entry already holds the change
T8 peptide: RVEWARKKL

[10] = target: T9, PTH 20-28 peptide RVEWLRAKL; experiment: alanine-scanning peptide array
T9 construct: Alanine variant; the entry already holds the change
T9 peptide: RVEWLRAKL

[11] = target: T10, PTH peptide RVEWLRKKL (amino acids 20-28, wild type); experiment: alanine-scanning peptide array
T10 construct: Peptide on a custom peptide array; also called wild-type peptide
T10 peptide: RVEWLRKKL

[12] = target: T11, PTH 20-28 peptide AVEWLRKKL; experiment: alanine-scanning peptide array
T11 construct: Alanine variant; the entry already holds the change
T11 peptide: AVEWLRKKL

[13] = target: T12, PTH 20-28 peptide RAEWLRKKL; experiment: alanine-scanning peptide array
T12 construct: Alanine variant; the entry already holds the change
T12 peptide: RAEWLRKKL

[14] = target: T13, PTH 20-28 peptide RVEALRKKL; experiment: alanine-scanning peptide array
T13 construct: Alanine variant; the entry already holds the change
T13 peptide: RVEALRKKL

Human PTH (18-48) = target: T14, Human PTH (18-48) (human); experiment: ELISA on coated peptide; B cell supernatant
T14 construct: Synthetic peptide bought from Bachem; also called hPTH18-48; 18-48mer
T14 peptide: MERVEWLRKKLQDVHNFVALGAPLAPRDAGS

Human PTH (7-84) = target: T15, Human PTH (7-84) (human); experiment: ELISA on coated peptide; B cell supernatant
T15 construct: Synthetic peptide bought from Bachem; also called hPTH7-84; 7-84mer
T15 peptide: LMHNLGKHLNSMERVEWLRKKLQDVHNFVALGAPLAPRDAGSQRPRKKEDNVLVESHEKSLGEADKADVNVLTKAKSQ

Rat PTH (1-84) [15] = target: T16, Rat PTH (1-84) (rat); experiment: ELISA on coated peptide; B cell supernatant
T16 construct: Synthetic peptide bought from Bachem; also called Rat 84mer
T16 peptide: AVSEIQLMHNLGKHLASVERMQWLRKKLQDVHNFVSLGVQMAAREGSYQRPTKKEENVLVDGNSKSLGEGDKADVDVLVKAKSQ

Human PTH (1-84) [16] = target: T2, Human PTH (1-84); experiment: ELISA on coated peptide; B cell supernatant
Human PTH (1-34) [17] = target: T1, Human PTH (1-34); experiment: BiaCore, 37° C., 34mer
Human PTH (1-34) [18] = target: T1, Human PTH (1-34); experiment: cell-based or functional assay
[19] = target: T17, Human PTH-related peptide (1-34) (human); experiment: indirect: competition ELISA on biotinylated human PTH 1-34
T17 construct: Synthetic peptide bought from Bachem; also called PTH-related protein 1-34; PTHrP
T17 sequence (peptide, as listed by the source): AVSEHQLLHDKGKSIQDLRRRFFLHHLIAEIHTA
Experimental: Biotinylated human PTH 1-34 was bound to streptavidin plates at 1 μg/mL for 30 minutes at RT. The plates were washed 5 times with dH2O. […] The titrated antibody was then transferred to the plate coated with human PTH 1-34 and allowed to bind for 1 hour at RT. After washing the plates 5 times with dH2O, 50 μL of Gt anti-Human (Fc)-HRP at 1 μg/mL was added to each well and the plates held 1 hour at RT. After washing the plates 5 times with dH2O, 50 μL of TMB substrate was added to each well. To stop the reaction, 50 μL of 1M phosphoric acid was added to each well. The plates were read at wavelength 450 nm.

Rat PTH (1-84) [20] = target: T16, Rat PTH (1-84); experiment: KinExA, solution equilibrium, room temperature
Source text: (§1) Kinetic analysis. […] This method involves solution-based determination of formal affinity measurements at equilibrium. Dual curve analysis with two known antibody concentrations and unknown antigen concentration was used to determine the KD measurements on human 34mer, human 84mer, cynomolgus 84mer and rat 84mer.

Cynomolgus PTH (1-84) = target: T18, Cynomolgus PTH (1-84) (cynomolgus); experiment: KinExA, solution equilibrium, room temperature
T18 construct: Synthetic peptide (CS Bio Company for the KinExA measurement and the monkey study); also called cynoPTH (1-84); cynomolgus 84mer
T18 peptide: T2 peptide with V35I, V58I, N76D
Source text: as §1

Human PTH (1-84) [21] = target: T2, Human PTH (1-84); experiment: KinExA, solution equilibrium, room temperature
Source text: as §1

Human PTH (1-34) [22] = target: T1, Human PTH (1-34); experiment: KinExA, solution equilibrium, room temperature
Source text: as §1

B1: anti-PTH mAb 183 (antibody, human IgG2, V domains shown)
VH: EVQLVQSGAEVKKPGESLKISCKGSGYSFTSYWIGWVRQMPGKGLEWMGIISPGDSDTRYSPSFQGQVTISADKSISTAYLQWSSLKASDTAMYYCARQGDYVWGSYDSWGQGTLVTVSS
VL: DIVMTQTPLSLSVTPGRPASISCKSSQSLLDSDGKTYLYWYLQKPGQPPQLLIYEVSNRFSGVPDRFSGSGSGTDFTLRISRVEAEDVGIYFCMPSIHLWTFGQGTKVEIK
Kd (Human PTH (1-34) [1]): 0.08 nM
Kd (Human PTH (1-84) [2]): 1 nM
IC50 of calcium influx in UMR-106 cells (FLIPR) (Human PTH (1-34) [3]): ~100 nM
Kd [4]: 0.06 nM
binding result [5]: no binding
binding result [6]: no binding
binding result [7]: no binding
binding result [8]: no binding
binding result [9]: no binding
binding result [10]: binds
binding result [11]: binds
binding result [12]: no binding
binding result [13]: no binding
binding result [14]: binds
OD (Human PTH (18-48)): 3.26 OD450
OD (Human PTH (7-84)): 1.95 OD450
OD (Rat PTH (1-84) [15]): 0.62 OD450
OD (Human PTH (1-84) [16]): 1.4 OD450
Kd (Human PTH (1-34) [17]): 0.1 nM
IC50 (read off the curve) (Human PTH (1-34) [18]): ~100 nM
binding result [19]: no binding (tested: 5 µg/mL PTHrp)
KD High (Rat PTH (1-84) [20]): 5 nM
KD Low (Rat PTH (1-84) [20]): 2 nM
Kd (Rat PTH (1-84) [20]): 3 nM
KD High (Cynomolgus PTH (1-84)): 0.018 nM
KD Low (Cynomolgus PTH (1-84)): 0.005 nM
Kd (Cynomolgus PTH (1-84)): 0.01 nM
KD High (Human PTH (1-84) [21]): 0.039 nM
KD Low (Human PTH (1-84) [21]): 0.012 nM
Kd (Human PTH (1-84) [21]): 0.022 nM
KD High (Human PTH (1-34) [22]): 0.065 nM
KD Low (Human PTH (1-34) [22]): 0.014 nM
Kd (Human PTH (1-34) [22]): 0.033 nM

B2: anti-PTH mAb 168 (antibody, human IgG2, V domains shown)
VH: B1 VH with G26R, S28I, S31N, S52Y, K74M, Y107F
VL: B1 VL with R17Q, R79K, I90V, F92Y, P95Q, H98Q
notes: also called XG2-168; AB-PTH-XG2-168
Kd (Human PTH (1-34) [1]): 2.7 nM
Kd (Human PTH (1-34) [17]): 2.6 nM

B3: anti-PTH mAb 011 (antibody, IgG2, V domains shown)
VH: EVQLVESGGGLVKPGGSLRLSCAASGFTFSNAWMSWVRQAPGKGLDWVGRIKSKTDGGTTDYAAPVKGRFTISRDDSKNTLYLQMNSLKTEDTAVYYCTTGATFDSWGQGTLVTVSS
VL: DIVMTQSPLSLPVTPGEPASISCRSSQSLLHSNGYKFLDWFLQKPGQSPQLLIYLGSYRASGVPDRFSGRGSGTDFTLKISRVEAEDVGVYYCMQALQTPWTFGQGTKVEIK
notes: also called AB-PTH-XG2-011; well 133A8
Kd (Human PTH (1-34) [1]): 1 nM
Kd (Human PTH (1-34) [17]): 3.5 nM

B4: anti-PTH mAb 045 (antibody, IgG2, V domains shown)
VH: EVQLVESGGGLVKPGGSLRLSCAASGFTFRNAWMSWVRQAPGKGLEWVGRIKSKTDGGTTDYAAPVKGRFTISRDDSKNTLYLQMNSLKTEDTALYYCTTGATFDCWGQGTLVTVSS
VL: B3 VL with K36N, F37Y, R70S, V90I, L97R
notes: also called AB-PTH-XG2-045; well 123B12
Kd (Human PTH (1-34) [1]): 0.5 nM
Kd (Human PTH (1-34) [17]): 2 nM

B5: anti-PTH mAb 057 (antibody, IgG2, V domains shown)
VH: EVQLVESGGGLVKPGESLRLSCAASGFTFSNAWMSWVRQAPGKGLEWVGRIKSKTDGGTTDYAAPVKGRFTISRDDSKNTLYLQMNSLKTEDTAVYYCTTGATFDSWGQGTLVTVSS
VL: B3 VL with H31Y, F37Y, F41Y, R70S
notes: also called AB-PTH-XG2-057; well 119G2
Kd (Human PTH (1-34) [1]): 1 nM
Kd (Human PTH (1-34) [17]): 1 nM

B6: anti-PTH mAb 124 (antibody, IgG2, V domains shown)
VH: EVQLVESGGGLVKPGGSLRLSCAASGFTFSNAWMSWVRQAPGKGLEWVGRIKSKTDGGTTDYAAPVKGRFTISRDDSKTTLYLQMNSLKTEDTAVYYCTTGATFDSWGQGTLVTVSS
VL: B3 VL with H31Y, Y35F, F37Y, R70S
notes: also called AB-PTH-XG2-124; well 135H11
Kd (Human PTH (1-34) [1]): 0.5 nM
Kd (Human PTH (1-34) [17]): 3.3 nM

B7: anti-PTH mAb 140 (antibody, IgG2, V domains shown)
VH: EVQLVESGGGLVKPGGSLTLSCAASGFTFSNAWLSWVRQAPGKGLEWVGRIKSKTDGGTTDYAAPVKGRFTVSRDDSKNTLFLQMNSLKTEDTAVYYCTTGATFDSWGQGTLVTVSS
VL: B3 VL with R70S, K79T
notes: also called AB-PTH-XG2-140; well 132G12
Kd (Human PTH (1-34) [1]): 0.8 nM
Kd (Human PTH (1-34) [17]): 5.2 nM

B8: anti-PTH mAb 163 (antibody, IgG2, V domains shown)
VH: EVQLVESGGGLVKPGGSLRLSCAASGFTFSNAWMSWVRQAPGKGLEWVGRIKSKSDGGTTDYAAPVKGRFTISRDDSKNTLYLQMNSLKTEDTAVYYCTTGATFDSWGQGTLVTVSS
VL: B3 VL with S32R, F37Y, F41Y, R70S, F76S
notes: also called AB-PTH-XG2-163; well 130A1
Kd (Human PTH (1-34) [1]): 3 nM
Kd (Human PTH (1-84) [2]): 41.1 nM
Kd (Human PTH (1-34) [17]): 7.9 nM

B9: anti-PTH mAb 026 (antibody, IgG2, V domains shown)
VH: QVQLVESGGGVVQPGRSLRLSCAASGFTFSSYGMHWVRQAPGKGLDWVAVISYDGSNKFYADSVKGRFTISRDNSKNTLYLQMNSLRAEDTAVYYCARDHWELLDYWGQGTLVTVSS
VL: DIVMTQTPLSLSVTPGQPASISCKSSQSLLDSDGKTYLYWYLQRSGQPPQLLIHEVSNRFSGVPYRFIGSGSGTDFTLKISRVEAEDVGAYYCMQGKQFPFIFGPGTKVDIK
notes: also called AB-PTH-XG2-026; well 126B1
Kd (Human PTH (1-34) [1]): 3 nM
Kd (Human PTH (1-34) [17]): 9.5 nM

B10: anti-PTH mAb 168g2/183k (antibody, V domains shown)
VH: B1 VH with G26R, S28I, S31N, S52Y, K74M, Y107F
VL: B1 VL
Kd (Human PTH (1-34) [1]): 0.28 nM
Kd (Human PTH (1-34) [17]): 0.64 nM

B11: anti-PTH mAb 214 (antibody, IgG2, V domains shown)
VH: EVQLVESGGGLVKPGGSLRLSCAASGSTFSNAWMSWVRQAPGKGLEWVGRIKSRTDGGTADYAAPVKGRFTISRDDLKKTLYLQMNSLKTEDTAVYYCTTYYFDSSGFPFDYWGQGTLVTVSS
VL: B3 VL with S10Y, F37Y, D39E, F41Y, I53V, Y58N, R70S, W101L, Q105G
notes: also called AB-PTH-XG2-214; well 267D10
Kd (Human PTH (1-34) [1]): 0.8 nM
Kd (Human PTH (1-84) [2]): 1.6 nM
Kd (Human PTH (1-34) [17]): 0.4 nM

B12: anti-PTH mAb 225 (antibody, IgG2, V domains shown)
VH: not shown
VL: EIVMTQSPLNLPVTPGEPASISCRSSQSLLHSNGYKYLEWYLQKPGQSPQLLIYLGSNRASGVPDRFSGSGSGTDFTLKISRVEAEDVGVYYCMQTLQIPLTFGGGTKVEIK
notes: also called well 275A4
Kd (Human PTH (1-34) [1]): 0.35 nM
Kd (Human PTH (1-84) [2]): 7.1 nM
Kd (Human PTH (1-34) [17]): 0.6 nM

B13: anti-PTH mAb 262 (antibody, IgG2, V domains shown)
VH: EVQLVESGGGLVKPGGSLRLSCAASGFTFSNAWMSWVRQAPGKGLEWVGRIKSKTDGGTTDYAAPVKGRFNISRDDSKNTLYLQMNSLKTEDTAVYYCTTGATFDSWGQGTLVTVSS
VL: B3 VL with F37Y, Y58I, R70S
notes: also called XG2-262; AB-PTH-XG2-262
OD (Human PTH (18-48)): 0.25 OD450
OD (Rat PTH (1-84) [15]): 2.11 OD450
OD (Human PTH (1-84) [16]): 1.46 OD450

Source: US20060062783A1 (Amgen, published 2006)
